The source of these data is US20230235013A1 (MABSOLVE, published 2023).

Sequences and labels used below:
B1: anti-CD20 human IgG1 L234A/L235A/G236R (antibody)
heavy: not shown
light: QIVLSQSPAILSASPGEKVTMTCRASSSVSYIHWFQQKPGSSPKPWIYATSNLASGVPVRFSGSGSGTSYSLTISRVEAEDAATYYCQQWTSNPPTFGGGTKLEIKRTVAAPSVFIFPPSDEQLKSGTASVVCLLNNFYPREAKVQWKVDNALQSGNSQESVTEQDSKDSTYSLSSTLTLSKADYEKHKVYACEVTHQGLSSPVTKSFNRGEC
notes: also called 1-2; 2-2; copies: 2 + 2
B2: anti-CD20 human IgG1 L234A/L235Q/G236R (antibody)
heavy: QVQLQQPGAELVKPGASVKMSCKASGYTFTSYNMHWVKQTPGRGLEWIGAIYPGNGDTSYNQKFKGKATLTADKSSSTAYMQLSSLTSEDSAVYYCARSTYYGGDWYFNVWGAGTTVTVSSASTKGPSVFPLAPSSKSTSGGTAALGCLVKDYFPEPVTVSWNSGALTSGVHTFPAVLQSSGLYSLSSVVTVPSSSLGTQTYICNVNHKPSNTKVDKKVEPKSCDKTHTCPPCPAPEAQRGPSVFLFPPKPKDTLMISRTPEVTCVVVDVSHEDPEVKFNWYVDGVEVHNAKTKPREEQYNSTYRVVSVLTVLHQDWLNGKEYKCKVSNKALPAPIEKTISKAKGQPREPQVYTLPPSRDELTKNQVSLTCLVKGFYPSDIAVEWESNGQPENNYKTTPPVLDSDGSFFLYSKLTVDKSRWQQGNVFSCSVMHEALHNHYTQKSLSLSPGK
light: QIVLSQSPAILSASPGEKVTMTCRASSSVSYIHWFQQKPGSSPKPWIYATSNLASGVPVRFSGSGSGTSYSLTISRVEAEDAATYYCQQWTSNPPTFGGGTKLEIKRTVAAPSVFIFPPSDEQLKSGTASVVCLLNNFYPREAKVQWKVDNALQSGNSQESVTEQDSKDSTYSLSSTLTLSKADYEKHKVYACEVTHQGLSSPVTKSFNRGEC
notes: also called 1-12; copies: 2 + 2
B3: anti-CD20 human IgG1 L234A/L235E/G236R (antibody)
heavy: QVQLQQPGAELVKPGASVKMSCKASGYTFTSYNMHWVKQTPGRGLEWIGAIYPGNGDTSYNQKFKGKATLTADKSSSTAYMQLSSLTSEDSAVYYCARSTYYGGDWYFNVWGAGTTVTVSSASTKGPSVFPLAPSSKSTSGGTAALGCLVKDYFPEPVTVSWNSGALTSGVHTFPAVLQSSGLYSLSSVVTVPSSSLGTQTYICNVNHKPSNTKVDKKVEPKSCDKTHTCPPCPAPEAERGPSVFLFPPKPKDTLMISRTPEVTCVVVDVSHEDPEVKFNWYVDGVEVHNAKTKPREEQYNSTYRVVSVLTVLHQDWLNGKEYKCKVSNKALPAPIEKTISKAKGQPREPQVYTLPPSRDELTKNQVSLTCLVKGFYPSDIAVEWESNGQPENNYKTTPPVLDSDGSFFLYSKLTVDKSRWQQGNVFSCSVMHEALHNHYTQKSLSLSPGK
light: QIVLSQSPAILSASPGEKVTMTCRASSSVSYIHWFQQKPGSSPKPWIYATSNLASGVPVRFSGSGSGTSYSLTISRVEAEDAATYYCQQWTSNPPTFGGGTKLEIKRTVAAPSVFIFPPSDEQLKSGTASVVCLLNNFYPREAKVQWKVDNALQSGNSQESVTEQDSKDSTYSLSSTLTLSKADYEKHKVYACEVTHQGLSSPVTKSFNRGEC
notes: also called 1-4; copies: 2 + 2
B4: anti-CD20 human IgG1 L234A/L235R/G236R (antibody)
heavy: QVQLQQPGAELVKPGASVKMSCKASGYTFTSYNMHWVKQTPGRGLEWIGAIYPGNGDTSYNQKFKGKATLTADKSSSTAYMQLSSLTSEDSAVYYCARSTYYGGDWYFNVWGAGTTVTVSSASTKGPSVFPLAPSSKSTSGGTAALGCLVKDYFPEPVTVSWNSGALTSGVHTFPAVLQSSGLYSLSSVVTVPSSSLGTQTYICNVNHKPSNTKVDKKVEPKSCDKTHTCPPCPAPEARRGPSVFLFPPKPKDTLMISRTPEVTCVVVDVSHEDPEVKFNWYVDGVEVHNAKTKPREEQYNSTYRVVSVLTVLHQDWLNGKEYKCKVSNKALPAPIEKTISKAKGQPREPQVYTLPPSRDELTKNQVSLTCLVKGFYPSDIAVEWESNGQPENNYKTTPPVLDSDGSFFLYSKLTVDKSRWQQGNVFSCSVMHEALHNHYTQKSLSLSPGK
light: QIVLSQSPAILSASPGEKVTMTCRASSSVSYIHWFQQKPGSSPKPWIYATSNLASGVPVRFSGSGSGTSYSLTISRVEAEDAATYYCQQWTSNPPTFGGGTKLEIKRTVAAPSVFIFPPSDEQLKSGTASVVCLLNNFYPREAKVQWKVDNALQSGNSQESVTEQDSKDSTYSLSSTLTLSKADYEKHKVYACEVTHQGLSSPVTKSFNRGEC
notes: also called 1-13; copies: 2 + 2
B5: anti-CD20 human IgG1 L234D/L235G/G236R (antibody)
heavy: QVQLQQPGAELVKPGASVKMSCKASGYTFTSYNMHWVKQTPGRGLEWIGAIYPGNGDTSYNQKFKGKATLTADKSSSTAYMQLSSLTSEDSAVYYCARSTYYGGDWYFNVWGAGTTVTVSSASTKGPSVFPLAPSSKSTSGGTAALGCLVKDYFPEPVTVSWNSGALTSGVHTFPAVLQSSGLYSLSSVVTVPSSSLGTQTYICNVNHKPSNTKVDKKVEPKSCDKTHTCPPCPAPEDGRGPSVFLFPPKPKDTLMISRTPEVTCVVVDVSHEDPEVKFNWYVDGVEVHNAKTKPREEQYNSTYRVVSVLTVLHQDWLNGKEYKCKVSNKALPAPIEKTISKAKGQPREPQVYTLPPSRDELTKNQVSLTCLVKGFYPSDIAVEWESNGQPENNYKTTPPVLDSDGSFFLYSKLTVDKSRWQQGNVFSCSVMHEALHNHYTQKSLSLSPGK
light: QIVLSQSPAILSASPGEKVTMTCRASSSVSYIHWFQQKPGSSPKPWIYATSNLASGVPVRFSGSGSGTSYSLTISRVEAEDAATYYCQQWTSNPPTFGGGTKLEIKRTVAAPSVFIFPPSDEQLKSGTASVVCLLNNFYPREAKVQWKVDNALQSGNSQESVTEQDSKDSTYSLSSTLTLSKADYEKHKVYACEVTHQGLSSPVTKSFNRGEC
notes: also called 1-20; copies: 2 + 2
B6: anti-CD20 human IgG1 L234A/L235H/G236R (antibody)
heavy: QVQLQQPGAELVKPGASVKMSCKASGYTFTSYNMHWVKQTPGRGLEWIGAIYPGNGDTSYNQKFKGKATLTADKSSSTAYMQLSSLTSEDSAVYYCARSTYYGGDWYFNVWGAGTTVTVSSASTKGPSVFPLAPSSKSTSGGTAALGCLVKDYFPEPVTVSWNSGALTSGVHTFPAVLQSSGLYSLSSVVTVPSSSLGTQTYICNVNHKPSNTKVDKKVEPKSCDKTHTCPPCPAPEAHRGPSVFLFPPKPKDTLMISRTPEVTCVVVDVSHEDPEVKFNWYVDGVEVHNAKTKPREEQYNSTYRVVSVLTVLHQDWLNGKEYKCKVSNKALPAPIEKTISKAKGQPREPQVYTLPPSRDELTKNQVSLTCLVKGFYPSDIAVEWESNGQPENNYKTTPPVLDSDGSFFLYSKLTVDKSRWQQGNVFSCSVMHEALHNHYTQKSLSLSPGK
light: QIVLSQSPAILSASPGEKVTMTCRASSSVSYIHWFQQKPGSSPKPWIYATSNLASGVPVRFSGSGSGTSYSLTISRVEAEDAATYYCQQWTSNPPTFGGGTKLEIKRTVAAPSVFIFPPSDEQLKSGTASVVCLLNNFYPREAKVQWKVDNALQSGNSQESVTEQDSKDSTYSLSSTLTLSKADYEKHKVYACEVTHQGLSSPVTKSFNRGEC
notes: also called 1-6; copies: 2 + 2
B7: anti-CD20 human IgG1 L234A/G236R (antibody)
heavy: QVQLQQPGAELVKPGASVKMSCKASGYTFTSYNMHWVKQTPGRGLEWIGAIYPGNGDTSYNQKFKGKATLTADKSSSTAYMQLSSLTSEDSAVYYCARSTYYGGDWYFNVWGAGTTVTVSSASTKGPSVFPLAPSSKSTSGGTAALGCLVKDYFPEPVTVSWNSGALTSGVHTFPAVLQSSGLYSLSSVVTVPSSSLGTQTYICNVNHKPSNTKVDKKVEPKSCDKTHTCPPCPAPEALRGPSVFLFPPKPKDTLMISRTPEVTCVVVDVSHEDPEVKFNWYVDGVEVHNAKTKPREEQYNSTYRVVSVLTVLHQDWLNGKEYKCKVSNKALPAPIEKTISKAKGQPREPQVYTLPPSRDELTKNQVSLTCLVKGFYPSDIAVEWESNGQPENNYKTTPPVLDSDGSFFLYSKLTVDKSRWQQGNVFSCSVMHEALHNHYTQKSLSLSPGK
light: QIVLSQSPAILSASPGEKVTMTCRASSSVSYIHWFQQKPGSSPKPWIYATSNLASGVPVRFSGSGSGTSYSLTISRVEAEDAATYYCQQWTSNPPTFGGGTKLEIKRTVAAPSVFIFPPSDEQLKSGTASVVCLLNNFYPREAKVQWKVDNALQSGNSQESVTEQDSKDSTYSLSSTLTLSKADYEKHKVYACEVTHQGLSSPVTKSFNRGEC
notes: also called 1-9; copies: 2 + 2
B8: anti-CD20 human IgG1 L234D/L235E/G236R (antibody)
heavy: QVQLQQPGAELVKPGASVKMSCKASGYTFTSYNMHWVKQTPGRGLEWIGAIYPGNGDTSYNQKFKGKATLTADKSSSTAYMQLSSLTSEDSAVYYCARSTYYGGDWYFNVWGAGTTVTVSSASTKGPSVFPLAPSSKSTSGGTAALGCLVKDYFPEPVTVSWNSGALTSGVHTFPAVLQSSGLYSLSSVVTVPSSSLGTQTYICNVNHKPSNTKVDKKVEPKSCDKTHTCPPCPAPEDERGPSVFLFPPKPKDTLMISRTPEVTCVVVDVSHEDPEVKFNWYVDGVEVHNAKTKPREEQYNSTYRVVSVLTVLHQDWLNGKEYKCKVSNKALPAPIEKTISKAKGQPREPQVYTLPPSRDELTKNQVSLTCLVKGFYPSDIAVEWESNGQPENNYKTTPPVLDSDGSFFLYSKLTVDKSRWQQGNVFSCSVMHEALHNHYTQKSLSLSPGK
light: QIVLSQSPAILSASPGEKVTMTCRASSSVSYIHWFQQKPGSSPKPWIYATSNLASGVPVRFSGSGSGTSYSLTISRVEAEDAATYYCQQWTSNPPTFGGGTKLEIKRTVAAPSVFIFPPSDEQLKSGTASVVCLLNNFYPREAKVQWKVDNALQSGNSQESVTEQDSKDSTYSLSSTLTLSKADYEKHKVYACEVTHQGLSSPVTKSFNRGEC
notes: also called 1-19; copies: 2 + 2
B9: anti-CD20 human IgG1 L234D/G236R (antibody)
heavy: not shown
light: QIVLSQSPAILSASPGEKVTMTCRASSSVSYIHWFQQKPGSSPKPWIYATSNLASGVPVRFSGSGSGTSYSLTISRVEAEDAATYYCQQWTSNPPTFGGGTKLEIKRTVAAPSVFIFPPSDEQLKSGTASVVCLLNNFYPREAKVQWKVDNALQSGNSQESVTEQDSKDSTYSLSSTLTLSKADYEKHKVYACEVTHQGLSSPVTKSFNRGEC
notes: also called 1-24; 2-8; copies: 2 + 2
B10: anti-CD20 human IgG1 L234D/L235D/G236R (antibody)
heavy: QVQLQQPGAELVKPGASVKMSCKASGYTFTSYNMHWVKQTPGRGLEWIGAIYPGNGDTSYNQKFKGKATLTADKSSSTAYMQLSSLTSEDSAVYYCARSTYYGGDWYFNVWGAGTTVTVSSASTKGPSVFPLAPSSKSTSGGTAALGCLVKDYFPEPVTVSWNSGALTSGVHTFPAVLQSSGLYSLSSVVTVPSSSLGTQTYICNVNHKPSNTKVDKKVEPKSCDKTHTCPPCPAPEDDRGPSVFLFPPKPKDTLMISRTPEVTCVVVDVSHEDPEVKFNWYVDGVEVHNAKTKPREEQYNSTYRVVSVLTVLHQDWLNGKEYKCKVSNKALPAPIEKTISKAKGQPREPQVYTLPPSRDELTKNQVSLTCLVKGFYPSDIAVEWESNGQPENNYKTTPPVLDSDGSFFLYSKLTVDKSRWQQGNVFSCSVMHEALHNHYTQKSLSLSPGK
light: QIVLSQSPAILSASPGEKVTMTCRASSSVSYIHWFQQKPGSSPKPWIYATSNLASGVPVRFSGSGSGTSYSLTISRVEAEDAATYYCQQWTSNPPTFGGGTKLEIKRTVAAPSVFIFPPSDEQLKSGTASVVCLLNNFYPREAKVQWKVDNALQSGNSQESVTEQDSKDSTYSLSSTLTLSKADYEKHKVYACEVTHQGLSSPVTKSFNRGEC
notes: also called 1-18; copies: 2 + 2
B11: anti-CD20 human IgG1 L234A/L235K/G236R (antibody)
heavy: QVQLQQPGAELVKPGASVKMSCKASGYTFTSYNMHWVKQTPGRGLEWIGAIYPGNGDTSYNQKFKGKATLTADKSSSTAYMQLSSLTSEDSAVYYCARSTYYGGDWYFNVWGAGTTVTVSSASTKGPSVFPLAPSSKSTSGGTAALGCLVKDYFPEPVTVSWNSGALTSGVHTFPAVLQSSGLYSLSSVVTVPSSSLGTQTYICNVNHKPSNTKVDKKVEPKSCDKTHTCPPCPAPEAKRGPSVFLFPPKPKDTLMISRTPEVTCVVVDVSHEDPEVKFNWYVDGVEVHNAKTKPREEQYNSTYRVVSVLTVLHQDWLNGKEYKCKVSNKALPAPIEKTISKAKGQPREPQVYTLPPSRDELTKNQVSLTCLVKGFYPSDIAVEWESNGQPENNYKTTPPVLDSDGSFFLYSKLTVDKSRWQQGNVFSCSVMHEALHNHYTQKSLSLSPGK
light: QIVLSQSPAILSASPGEKVTMTCRASSSVSYIHWFQQKPGSSPKPWIYATSNLASGVPVRFSGSGSGTSYSLTISRVEAEDAATYYCQQWTSNPPTFGGGTKLEIKRTVAAPSVFIFPPSDEQLKSGTASVVCLLNNFYPREAKVQWKVDNALQSGNSQESVTEQDSKDSTYSLSSTLTLSKADYEKHKVYACEVTHQGLSSPVTKSFNRGEC
notes: also called 1-8; copies: 2 + 2
B12: anti-CD20 human IgG1 L234A/L235M/G236R (antibody)
heavy: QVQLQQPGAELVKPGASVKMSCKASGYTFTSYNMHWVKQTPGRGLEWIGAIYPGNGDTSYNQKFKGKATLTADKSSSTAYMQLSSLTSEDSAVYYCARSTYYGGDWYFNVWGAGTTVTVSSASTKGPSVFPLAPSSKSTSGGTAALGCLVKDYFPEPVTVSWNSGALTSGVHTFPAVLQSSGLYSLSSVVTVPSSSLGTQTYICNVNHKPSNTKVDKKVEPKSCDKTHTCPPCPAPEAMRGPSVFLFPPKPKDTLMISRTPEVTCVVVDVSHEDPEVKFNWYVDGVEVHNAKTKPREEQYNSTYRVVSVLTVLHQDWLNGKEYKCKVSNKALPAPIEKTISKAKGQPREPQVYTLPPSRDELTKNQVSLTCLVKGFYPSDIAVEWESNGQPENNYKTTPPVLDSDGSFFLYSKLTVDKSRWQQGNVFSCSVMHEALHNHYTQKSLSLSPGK
light: QIVLSQSPAILSASPGEKVTMTCRASSSVSYIHWFQQKPGSSPKPWIYATSNLASGVPVRFSGSGSGTSYSLTISRVEAEDAATYYCQQWTSNPPTFGGGTKLEIKRTVAAPSVFIFPPSDEQLKSGTASVVCLLNNFYPREAKVQWKVDNALQSGNSQESVTEQDSKDSTYSLSSTLTLSKADYEKHKVYACEVTHQGLSSPVTKSFNRGEC
notes: also called 1-10; copies: 2 + 2
B13: anti-CD20 human IgG1 L234A/L235D/G236R (antibody)
heavy: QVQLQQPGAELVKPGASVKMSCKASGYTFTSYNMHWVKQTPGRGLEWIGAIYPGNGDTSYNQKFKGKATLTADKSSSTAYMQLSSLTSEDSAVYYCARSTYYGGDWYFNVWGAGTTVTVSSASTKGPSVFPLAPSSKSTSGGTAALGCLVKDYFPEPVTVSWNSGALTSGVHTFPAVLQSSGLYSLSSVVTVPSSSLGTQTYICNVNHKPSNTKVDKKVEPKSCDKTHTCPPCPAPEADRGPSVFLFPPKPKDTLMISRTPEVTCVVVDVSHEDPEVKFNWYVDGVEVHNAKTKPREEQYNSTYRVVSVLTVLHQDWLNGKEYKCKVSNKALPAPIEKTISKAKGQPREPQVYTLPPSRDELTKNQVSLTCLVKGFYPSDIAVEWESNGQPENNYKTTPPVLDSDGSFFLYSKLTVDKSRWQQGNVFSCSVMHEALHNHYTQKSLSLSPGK
light: QIVLSQSPAILSASPGEKVTMTCRASSSVSYIHWFQQKPGSSPKPWIYATSNLASGVPVRFSGSGSGTSYSLTISRVEAEDAATYYCQQWTSNPPTFGGGTKLEIKRTVAAPSVFIFPPSDEQLKSGTASVVCLLNNFYPREAKVQWKVDNALQSGNSQESVTEQDSKDSTYSLSSTLTLSKADYEKHKVYACEVTHQGLSSPVTKSFNRGEC
notes: also called 1-3; copies: 2 + 2
B14: anti-CD20 human IgG1 L234A/L235G/G236R (antibody)
heavy: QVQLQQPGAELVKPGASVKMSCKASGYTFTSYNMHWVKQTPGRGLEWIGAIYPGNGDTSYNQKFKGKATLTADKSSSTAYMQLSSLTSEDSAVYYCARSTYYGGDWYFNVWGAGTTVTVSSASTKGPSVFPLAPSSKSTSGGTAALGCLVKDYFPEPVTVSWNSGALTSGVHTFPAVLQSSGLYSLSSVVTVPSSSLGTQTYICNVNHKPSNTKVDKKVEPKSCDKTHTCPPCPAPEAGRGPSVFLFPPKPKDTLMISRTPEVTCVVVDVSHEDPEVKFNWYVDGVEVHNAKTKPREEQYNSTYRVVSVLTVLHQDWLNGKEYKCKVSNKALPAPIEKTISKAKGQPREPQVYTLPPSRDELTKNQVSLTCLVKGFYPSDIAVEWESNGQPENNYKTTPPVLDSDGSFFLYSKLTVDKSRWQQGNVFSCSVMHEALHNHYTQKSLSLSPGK
light: QIVLSQSPAILSASPGEKVTMTCRASSSVSYIHWFQQKPGSSPKPWIYATSNLASGVPVRFSGSGSGTSYSLTISRVEAEDAATYYCQQWTSNPPTFGGGTKLEIKRTVAAPSVFIFPPSDEQLKSGTASVVCLLNNFYPREAKVQWKVDNALQSGNSQESVTEQDSKDSTYSLSSTLTLSKADYEKHKVYACEVTHQGLSSPVTKSFNRGEC
notes: also called 1-5; copies: 2 + 2
B15: anti-CD20 human IgG1 L234A/L235I/G236R (antibody)
heavy: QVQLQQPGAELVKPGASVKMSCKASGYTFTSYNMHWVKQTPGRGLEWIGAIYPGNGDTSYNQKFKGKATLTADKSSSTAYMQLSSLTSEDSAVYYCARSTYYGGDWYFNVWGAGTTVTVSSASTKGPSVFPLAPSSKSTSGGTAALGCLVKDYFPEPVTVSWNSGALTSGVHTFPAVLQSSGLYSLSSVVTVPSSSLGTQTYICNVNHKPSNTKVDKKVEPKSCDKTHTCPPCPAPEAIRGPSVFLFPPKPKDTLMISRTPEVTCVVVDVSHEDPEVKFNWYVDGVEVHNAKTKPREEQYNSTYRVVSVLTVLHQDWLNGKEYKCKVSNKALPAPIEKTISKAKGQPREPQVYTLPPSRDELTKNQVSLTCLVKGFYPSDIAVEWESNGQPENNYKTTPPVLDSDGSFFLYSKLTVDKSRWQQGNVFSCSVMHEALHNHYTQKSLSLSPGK
light: QIVLSQSPAILSASPGEKVTMTCRASSSVSYIHWFQQKPGSSPKPWIYATSNLASGVPVRFSGSGSGTSYSLTISRVEAEDAATYYCQQWTSNPPTFGGGTKLEIKRTVAAPSVFIFPPSDEQLKSGTASVVCLLNNFYPREAKVQWKVDNALQSGNSQESVTEQDSKDSTYSLSSTLTLSKADYEKHKVYACEVTHQGLSSPVTKSFNRGEC
notes: also called 1-7; copies: 2 + 2
B16: anti-CD20 human IgG1 L234D/L235A/G236R (antibody)
heavy: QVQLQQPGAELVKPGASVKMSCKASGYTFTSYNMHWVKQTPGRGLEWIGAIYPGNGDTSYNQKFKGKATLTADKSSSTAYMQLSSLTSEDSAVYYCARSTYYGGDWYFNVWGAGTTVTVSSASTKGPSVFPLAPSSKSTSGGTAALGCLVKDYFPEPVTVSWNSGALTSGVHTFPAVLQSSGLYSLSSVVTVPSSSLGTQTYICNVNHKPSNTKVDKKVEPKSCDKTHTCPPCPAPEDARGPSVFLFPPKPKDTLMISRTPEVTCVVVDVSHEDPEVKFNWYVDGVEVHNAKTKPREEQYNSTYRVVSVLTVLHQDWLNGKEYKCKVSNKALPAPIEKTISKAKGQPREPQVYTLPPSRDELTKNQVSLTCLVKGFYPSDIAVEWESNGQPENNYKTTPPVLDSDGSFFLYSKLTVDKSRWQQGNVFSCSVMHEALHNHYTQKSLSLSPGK
light: QIVLSQSPAILSASPGEKVTMTCRASSSVSYIHWFQQKPGSSPKPWIYATSNLASGVPVRFSGSGSGTSYSLTISRVEAEDAATYYCQQWTSNPPTFGGGTKLEIKRTVAAPSVFIFPPSDEQLKSGTASVVCLLNNFYPREAKVQWKVDNALQSGNSQESVTEQDSKDSTYSLSSTLTLSKADYEKHKVYACEVTHQGLSSPVTKSFNRGEC
notes: also called 1-17; copies: 2 + 2
B17: anti-CD20 human IgG1 L234A/L235V/G236R (antibody)
heavy: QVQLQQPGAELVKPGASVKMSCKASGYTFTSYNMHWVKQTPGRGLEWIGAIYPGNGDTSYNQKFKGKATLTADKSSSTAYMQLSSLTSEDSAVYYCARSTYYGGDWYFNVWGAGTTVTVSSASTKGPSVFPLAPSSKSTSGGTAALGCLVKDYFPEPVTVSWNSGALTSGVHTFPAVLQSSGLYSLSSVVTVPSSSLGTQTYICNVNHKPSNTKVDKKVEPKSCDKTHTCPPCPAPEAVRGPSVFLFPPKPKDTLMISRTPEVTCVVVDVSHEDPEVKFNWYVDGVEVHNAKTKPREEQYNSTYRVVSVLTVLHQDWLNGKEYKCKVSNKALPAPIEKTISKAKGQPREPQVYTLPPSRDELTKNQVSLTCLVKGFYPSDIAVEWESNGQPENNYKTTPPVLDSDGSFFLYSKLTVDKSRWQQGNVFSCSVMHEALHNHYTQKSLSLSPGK
light: QIVLSQSPAILSASPGEKVTMTCRASSSVSYIHWFQQKPGSSPKPWIYATSNLASGVPVRFSGSGSGTSYSLTISRVEAEDAATYYCQQWTSNPPTFGGGTKLEIKRTVAAPSVFIFPPSDEQLKSGTASVVCLLNNFYPREAKVQWKVDNALQSGNSQESVTEQDSKDSTYSLSSTLTLSKADYEKHKVYACEVTHQGLSSPVTKSFNRGEC
notes: also called 1-16; copies: 2 + 2

The target of this assay is T1, Histidine-tagged recombinant human FcγRI (CD64) (human, UniProt P12314 16-288).
T1 construct: bought; also called Sino Biological Cat. No. 12056-H08H
The assay is described as follows: SPR, culture supernatant, captured His-FcγRI.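 Further: biacore T200 SPR at 25 °C, anti-His capture, supernatants of HEK293 cells expressing IgG1 Fc variants injected 1 min, reference-subtracted response read 55 s after injection start.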 Background: Surface plasmon resonance follows binding to a sensor surface in real time, without labels.
In the case of B1, the Mean binding response was 30.7 RU.

For B2, the Mean binding response was found to be 34.3 RU.

Take B3: the Mean binding response is 31.7 RU.

B4: the Mean binding response is 26.9 RU.

Regarding B5, the Mean binding response worked out at 27.3 RU.

Consider B6, for which the Mean binding response was 23 RU.

Regarding B7, the Mean binding response was 8 RU.

On to B8, for which the Mean binding response was found to be 22.1 RU.

As to B9, the Mean binding response amounted to 11.9 RU.

For B10, the Mean binding response worked out at 22 RU.

In the case of B11, the Mean binding response was 34.2 RU.

For the molecule B12, the Mean binding response was 27.4 RU.

Regarding B13, the Mean binding response came to 28 RU.

Consider B14, for which the Mean binding response was found to be 27.6 RU.

For the molecule B15, the Mean binding response is 28.4 RU.

For B16, the Mean binding response came to 29.6 RU.

For B17, the Mean binding response was determined as 25.8 RU.
